Measured values: US20180312587A1 (ADURO BIOTECH HOLDINGS EUROPE B V, published 2018)
Where two headings read alike, the source gives them in different places.

Columns and labels:
human SIRPα variant 1 [1] = target: T1, human SIRPα variant 1 (human, UniProt P78324 31-504); experiment: CELISA, CHO-K1 transfectants
T1 construct: full length ORF on transfected CHO-K1 or HEK293 cells; entry includes the signal peptide; also called hSIRPαV1; SIRPαV1
Protocol: (§1) Reactivity was confirmed using CHO-K1 cells (ATCC CCL-61) expressing a cDNA encoding the full length open reading frame of hSIRPαV1, hSIRPαV1(P74A), hSIRPαV2, and hSIRPβ1 subcloned into the pCI-neo vector (Promega, Madison, Wis.). CHO-K1.hSIRPαV1, CHO-K1.hSIRPαV1(P74A), CHO-K1.hSIRPαV2, and CHO-K1.hSIRPβ1 cells were seeded in culture medium (DMEM-F12 (Gibco) supplemented with 5% New Born Calf Serum (BioWest) and Pen/Strep (Gibco)) in 96-well flat-bottom tissue culture plates and incubated at 37° C., 5% CO₂ and 95% humidity for 24 hours. Subsequently, culture medium was removed and cells were incubated for 1 hour at 37° C., 5% CO₂ and 95% humidity with purified hSIRPα antibodies (used at 10 μg/mL and dilutions thereof). Next, cells were washed with PBS-T and incubated for 1 hour at 37° C., 5% CO₂ and 95% humidity with goat-anti-mouse IgG-HRP (Southern Biotech). Subsequently, cells were washed three times with PBS-T and immunoreactivity against hSIRPαV1, hSIRPαV1(P74A), hSIRPαV2, and hSIRPβ1 was visualized with TMB Stabilized Chromogen (Invitrogen). Reactions were stopped with 0.5 M H₂SO₄ and absorbances were read at 450 and 610 nm.

human SIRPα variant 2 [2] = target: T2, human SIRPα variant 2 (human, UniProt P78324 31-504); experiment: CELISA, CHO-K1 transfectants
T2 construct: full length ORF on transfected CHO-K1 cells; also called hSIRPαV2; SIRPαV2
Protocol: as §1

human SIRPα variant 1 [3] = target: T1, human SIRPα variant 1; experiment: CELISA, CHO-K1 transfectants; remark: listed apart in the source
Protocol: The specificity of monoclonal anti-hSIRPα antibodies (e.g., including the hSIRPα antibodies known in the art, KWAR23 ([…]. Patent CA2939293 A1), 18D5 (Patent WO2017/178653 A2), and various commercially available hSIRPα antibodies) for binding to hSIRPαV1, hSIRPαV1(P74A), and hSIRPβ1 was evaluated by CELISA. Reactivity was confirmed using CHO-K1 cells (ATCC CCL-61) expressing a cDNA encoding the full length open reading frame of hSIRPαV1, hSIRPαV1(P74A), and hSIRPβ1 subcloned into the pCI-neo vector (Promega, Madison, Wis.). CHO-K1.hSIRPαV1, CHO-K1.hSIRPαV1(P74A), and CHO-K1.hSIRPβ1 cells were seeded in culture medium (DMEM-F12 (Gibco) supplemented with 5% New Born Calf Serum (BioWest) and Pen/Strep (Gibco)) in 96-well flat-bottom tissue culture plates and incubated at 37° C., 5% CO₂ and 95% humidity for 24 hours. Subsequently, culture medium was removed and cells were incubated for 1 hour at 37° C., 5% CO₂ and 95% humidity with purified hSIRPα antibodies (used at 10 μg/ml and dilutions thereof). Next, cells were washed with PBS-T and incubated for 1 hour at 37° C., 5% CO₂ and 95% humidity with either goat-anti-mouse IgG-HRP (Southern Biotech), goat-anti-human IgG-HRP (Jackson Immuno Research), or goat-anti-rabbit IgG-HRP (Southern Biotech). Subsequently, cells were washed three times with PBS-T and immunoreactivity against hSIRPαV1, hSIRPαV1(P74A), and hSIRPβ1 was visualized with TMB Stabilized Chromogen (Invitrogen). Reactions were stopped with 0.5 M H₂SO₄ and absorbances were read at 450 and 610 nm.

human SIRPγ = target: T3, human SIRPγ (human, UniProt Q9P1W8 29-387); experiment: flow cytometry, Jurkat E6.1 cells
T3 construct: on transfected CHO-K1 cells; also called hSIRPγ
Protocol: Binding to hSIRPγ was assessed by flow cytometry using the Jurkat E6.1 T cell leukemia cell line (ECACC 88042803). Jurkat cells were seeded in 96-well round bottomed tissue culture plates and incubated for 40 minutes with the anti-hSIRPα antibodies (20 μg/mL and dilutions thereof) in PBS/1% BSA at 4° C. […] After this labeling procedure, cells were washed two times, resuspended in PBS/1% BSA, containing 0.1 μg/mL DAPI (BioLegend), and analysed by flow cytometry on the FACSVerse (BD Biosciences). Data were processed and analysed with FlowJo V10 software (FlowJo, LLC).

human SIRPα variant 1 [4] = target: T1, human SIRPα variant 1; experiment: flow cytometry, blockade of DyLight488-hCD47/Fc binding to U-937 cells
Summary of the method: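 THP-1 or U-937 monocyte cells in 96-well round-bottom plates were incubated for 45 minutes at 4 °C in PBS/1% BSA with FcR Blocking Reagent and a dilution series of anti-SIRPα antibody. Cells were washed, resuspended with 0.1 μg/mL DAPI and measured by flow cytometry, with analysis in FlowJo. IC50 is the antibody concentration giving half-maximal inhibition of CD47/Fc binding.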

human SIRPα variant 2 [5] = target: T2, human SIRPα variant 2; experiment: flow cytometry, blockade of DyLight488-hCD47/Fc binding to THP-1 cells
Protocol: hCD47 blockade for the KWAR23, clone 18D5, and hSIRPα.40A antibodies was assessed by flow cytometry. For this purpose, THP-1 (ATCC TIB-202) and U-937 (ATCC CRL-1593.2) monocyte cell lines were used as the source of hSIRPα in the assay. THP-1 and U-937 cells were seeded in 96-well round bottomed tissue culture plates and incubated for 45 minutes with FcR Blocking Reagent (Miltenyi Biotec) and indicated anti-hSIRPα antibodies (20 μg/mL and dilutions thereof) in PBS/1% BSA at 4° C. […] After this labeling procedure, cells were washed two times, resuspended in PBS/1% BSA containing 0.1 μg/mL DAPI (BioLegend), and analysed by flow cytometry on the FACSVerse (BD Biosciences). Data were processed and analysed with FlowJo V10 software (FlowJo, LLC) and plotted using GraphPad Prism 6 (GraphPad Software, Inc.). Binding of recombinant hCD47 fused to an Fc domain of human IgG1 was monitored in the presence of increasing amounts of the anti-hSIRPα antibodies. […] IC50 values represent the concentration at which half of the inhibition is observed.

T2 sequence (P78324 other isoform, or with tags, fused parts or gaps mutant limits assumed): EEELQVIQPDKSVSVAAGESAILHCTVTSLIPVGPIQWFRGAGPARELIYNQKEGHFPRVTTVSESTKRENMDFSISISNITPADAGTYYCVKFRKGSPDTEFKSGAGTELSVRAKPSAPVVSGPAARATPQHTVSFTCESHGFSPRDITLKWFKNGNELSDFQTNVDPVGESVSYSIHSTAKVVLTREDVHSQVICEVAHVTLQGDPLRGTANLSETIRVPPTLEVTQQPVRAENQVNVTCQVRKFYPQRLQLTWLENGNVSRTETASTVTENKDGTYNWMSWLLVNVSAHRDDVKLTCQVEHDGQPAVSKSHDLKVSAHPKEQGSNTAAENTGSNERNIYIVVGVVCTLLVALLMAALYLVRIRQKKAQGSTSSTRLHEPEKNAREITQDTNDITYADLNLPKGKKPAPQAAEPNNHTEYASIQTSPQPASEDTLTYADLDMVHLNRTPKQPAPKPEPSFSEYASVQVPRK
T1 sequence (P78324 31-504 limits assumed, change not shown): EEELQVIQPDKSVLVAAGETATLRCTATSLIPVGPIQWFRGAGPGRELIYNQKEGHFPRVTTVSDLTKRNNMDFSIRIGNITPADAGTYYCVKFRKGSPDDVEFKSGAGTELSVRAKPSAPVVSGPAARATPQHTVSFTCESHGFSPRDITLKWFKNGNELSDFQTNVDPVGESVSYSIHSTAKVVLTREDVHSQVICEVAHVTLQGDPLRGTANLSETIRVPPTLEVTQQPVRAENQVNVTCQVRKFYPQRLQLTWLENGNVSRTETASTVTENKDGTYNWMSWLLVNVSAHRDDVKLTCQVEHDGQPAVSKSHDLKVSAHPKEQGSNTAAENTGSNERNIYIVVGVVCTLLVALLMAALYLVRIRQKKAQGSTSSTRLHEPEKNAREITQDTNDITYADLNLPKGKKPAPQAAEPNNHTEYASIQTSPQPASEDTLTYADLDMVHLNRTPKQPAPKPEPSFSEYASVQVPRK
T3 sequence (Q9P1W8 29-387 limits assumed): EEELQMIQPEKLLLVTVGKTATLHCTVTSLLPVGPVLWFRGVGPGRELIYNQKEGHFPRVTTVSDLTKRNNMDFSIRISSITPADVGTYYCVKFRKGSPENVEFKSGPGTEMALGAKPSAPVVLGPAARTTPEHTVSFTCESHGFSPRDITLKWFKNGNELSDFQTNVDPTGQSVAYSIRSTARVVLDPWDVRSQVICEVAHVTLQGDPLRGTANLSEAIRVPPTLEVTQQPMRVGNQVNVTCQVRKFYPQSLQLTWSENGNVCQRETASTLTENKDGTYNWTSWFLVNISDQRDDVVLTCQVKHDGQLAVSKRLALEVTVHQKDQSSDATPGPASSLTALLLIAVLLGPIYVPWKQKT

| EC50 (human SIRPα variant 1 [1]) [nM] | EC50 (human SIRPα variant 2 [2]) [nM] | EC50 (human SIRPα variant 1 [3]) [nM] | EC50 (human SIRPγ) [nM] | IC50 (human SIRPα variant 1 [4]) [nM] | IC50 (human SIRPα variant 2 [5]) [nM] | Binder |
| --- | --- | --- | --- | --- | --- | --- |
| 0.114 | 0.093 | 0.053 | 0.369 | 1.34 | 0.548 | hSIRPα.40A (antibody, mouse IgG1, kappa, V domains shown, mouse antibody, full chains without signal peptide; also called mouse hSIRPα.40A) VH: EVQFQQSGTVLARPGTSVKMSCKASGSTFTSYWMHWVKQGPGQGLQWIGAIYPVNNDTTYNQKFKGKAELTVVTSTSTAYMEVSSLTNEDSAVYYCTRSFYYSLDAAWFVYWGQGTLVTVSA VL: DIQMTQSPSSLSASLGERVSLTCRASQDIGSRLNWLQQEPDGTIKRLIYATSSLDSGVPKRFSGSRSGSDYSLTISGLESEDFVDYYCLQYASSPFTFGGGTKLEINR |
| 0.773 | 0.645 | 0.307 | – | 19.5 | – | hSIRPα.50A (antibody, V domains shown, light chain constant domain not tied; also called mouse hSIRPα.50A; hSIRPα.50A.mIgG1) VH: QVQLQQSGPELVKPGASVRISCKASGFTFTNYYIHWVKQRPGQGLEWIGWIYPGNVNTKYNEKFKAKATLTADKSSTTAYMQLSSLASEDSAVYFCARPTIIATDFDVWGAGTTVTVSS VL: DIVMTQSHKFMSTSVGDRVNITCKASQGVGTAVGWYQQKPGQSPRLLIYWASTRHTGVPDRFTGSGSGTDFSLAISNVQSEDLADYFCQQYSTYPFTFGGGTNLEIK |
| 0.07 | 0.049 | 0.135 | 0.003 | – | 0.132 | KWAR23 (antibody, V domains shown) VH: EVQLQQSGAELVKPGASVKLSCTASGFNIKDYYIHWVQQRTEQGLEWIGRIDPEDGETKYAPKFQDKATITADTSSNTAYLHLSSLTSEDTAVYYCARWGAYWGQGTLVTVSS VL: QIVLTQSPAIMSASPGEKVTLTCSASSSVSSSYLYWYQQKPGSSPKLWIYSTSNLASGVPARFSGSGSGTSYSLTISSMEAEDAASYFCHQWSSYPRTFGAGTKLELK |
